According to article PMC4568301 (The Biochemical journal, 2012):

T1: NHERF2–VC (Na+/H+ exchanger regulatory factor 2, HA-tagged, fused to the C-terminal fragment of Venus), Q15599
T1 chain: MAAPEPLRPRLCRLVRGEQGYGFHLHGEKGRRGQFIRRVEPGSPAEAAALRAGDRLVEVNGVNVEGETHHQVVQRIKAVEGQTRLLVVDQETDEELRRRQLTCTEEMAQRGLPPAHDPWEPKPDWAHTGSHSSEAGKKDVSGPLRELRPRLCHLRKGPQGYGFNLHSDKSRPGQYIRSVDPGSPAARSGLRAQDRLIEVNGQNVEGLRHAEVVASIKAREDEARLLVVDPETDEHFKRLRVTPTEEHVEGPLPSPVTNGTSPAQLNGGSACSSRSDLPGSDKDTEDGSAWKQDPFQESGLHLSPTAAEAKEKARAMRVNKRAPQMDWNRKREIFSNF

T2: His6–Tir-EHEC (residues 1–558) (enterohaemorrhagic Escherichia coli …, UniProt Q7DB77 1-558)
T2 sequence: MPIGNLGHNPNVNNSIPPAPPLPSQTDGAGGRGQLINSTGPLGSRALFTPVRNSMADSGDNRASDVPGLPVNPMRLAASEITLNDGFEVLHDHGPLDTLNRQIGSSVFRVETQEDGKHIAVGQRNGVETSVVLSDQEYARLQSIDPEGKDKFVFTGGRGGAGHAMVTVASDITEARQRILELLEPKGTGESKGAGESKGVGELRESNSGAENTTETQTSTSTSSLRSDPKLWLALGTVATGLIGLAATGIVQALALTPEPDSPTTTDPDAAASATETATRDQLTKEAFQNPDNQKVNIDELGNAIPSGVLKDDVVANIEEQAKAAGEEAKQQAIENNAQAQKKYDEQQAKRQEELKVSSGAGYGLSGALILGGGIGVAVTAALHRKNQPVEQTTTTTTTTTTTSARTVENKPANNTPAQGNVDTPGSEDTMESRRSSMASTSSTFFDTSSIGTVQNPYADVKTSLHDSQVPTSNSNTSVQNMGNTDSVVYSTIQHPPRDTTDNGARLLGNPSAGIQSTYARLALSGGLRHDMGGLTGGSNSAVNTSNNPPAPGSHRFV

T3: Tir-EPEC (residues 1–550), His6-tagged (enteropathogenic Escherichia coli (EPEC), UniProt B7UM99 1-550)
T3 sequence: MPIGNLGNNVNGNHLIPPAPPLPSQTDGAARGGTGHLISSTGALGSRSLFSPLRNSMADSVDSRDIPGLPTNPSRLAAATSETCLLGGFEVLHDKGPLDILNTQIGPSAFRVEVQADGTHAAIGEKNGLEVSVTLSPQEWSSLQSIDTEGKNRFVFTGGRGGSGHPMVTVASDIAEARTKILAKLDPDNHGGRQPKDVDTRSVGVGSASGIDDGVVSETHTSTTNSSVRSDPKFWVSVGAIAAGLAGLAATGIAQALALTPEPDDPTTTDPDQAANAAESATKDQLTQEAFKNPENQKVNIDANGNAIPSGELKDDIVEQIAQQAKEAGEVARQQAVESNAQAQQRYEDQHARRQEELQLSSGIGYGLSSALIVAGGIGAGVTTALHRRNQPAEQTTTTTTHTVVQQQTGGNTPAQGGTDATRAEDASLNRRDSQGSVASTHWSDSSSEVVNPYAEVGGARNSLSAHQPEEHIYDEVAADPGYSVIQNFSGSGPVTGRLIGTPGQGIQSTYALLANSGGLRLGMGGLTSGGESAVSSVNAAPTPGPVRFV

B1: NHERF2–VC (Na+/H+ exchanger regulatory factor 2, HA-tagged, fused to the C-terminal fragment of Venus), Q15599 1-337 (natural protein)
chain: T1 chain
B2: AnxA2-C (C-terminal region of AnxA2, amino acids 191–339), His6-tagged (domain or fragment)
chain: IDQDARDLYDAGVKRKGTDVPKWISIMTERSVPHLQKVFDRYKSYSPYDMLESIRKEVKGDLENAFLNLVQCIQNKPLYFADRLYDSMKGKGTRDKVLIRIMVSRSEVDMLKIRSEFKRKYGKSLYYYIQQDTKGDYQKALLYLCGGDD
B3: TirC-EHEC (residues 366–558), His6-tagged (domain or fragment)
chain: SGALILGGGIGVAVTAALHRKNQPVEQTTTTTTTTTTTSARTVENKPANNTPAQGNVDTPGSEDTMESRRSSMASTSSTFFDTSSIGTVQNPYADVKTSLHDSQVPTSNSNTSVQNMGNTDSVVYSTIQHPPRDTTDNGARLLGNPSAGIQSTYARLALSGGLRHDMGGLTGGSNSAVNTSNNPPAPGSHRFV
B4: TirN-EHEC (residues 1–237), His6-tagged (domain or fragment)
chain: MPIGNLGHNPNVNNSIPPAPPLPSQTDGAGGRGQLINSTGPLGSRALFTPVRNSMADSGDNRASDVPGLPVNPMRLAASEITLNDGFEVLHDHGPLDTLNRQIGSSVFRVETQEDGKHIAVGQRNGVETSVVLSDQEYARLQSIDPEGKDKFVFTGGRGGAGHAMVTVASDITEARQRILELLEPKGTGESKGAGESKGVGELRESNSGAENTTETQTSTSTSSLRSDPKLWLALGT
B5: TirN-EPEC (residues 1–240), His6-tagged (domain or fragment)
chain: MPIGNLGNNVNGNHLIPPAPPLPSQTDGAARGGTGHLISSTGALGSRSLFSPLRNSMADSVDSRDIPGLPTNPSRLAAATSETCLLGGFEVLHDKGPLDILNTQIGPSAFRVEVQADGTHAAIGEKNGLEVSVTLSPQEWSSLQSIDTEGKNRFVFTGGRGGSGHPMVTVASDIAEARTKILAKLDPDNHGGRQPKDVDTRSVGVGSASGIDDGVVSETHTSTTNSSVRSDPKFWVSVGA
B6: TirC-EPEC (residues 369–550), His6-tagged (domain or fragment)
chain: SSALIVAGGIGAGVTTALHRRNQPAEQTTTTTTHTVVQQQTGGNTPAQGGTDATRAEDASLNRRDSQGSVASTHWSDSSSEVVNPYAEVGGARNSLSAHQPEEHIYDEVAADPGYSVIQNFSGSGPVTGRLIGTPGQGIQSTYALLANSGGLRLGMGGLTSGGESAVSSVNAAPTPGPVRFV

What was measured:
[1] = target: T1, NHERF2–VC (Na+/H+ exchanger regulatory …); experiment: split reporter; settings: remark: other sources report otherwise
[2] = target: T2, His6–Tir-EHEC (residues 1–558); experiment: […]
[3] = target: T3, Tir-EPEC (residues 1–550), His6-tagged; experiment: […]
[4] = target: AnxA2–HA (His6–AnxA2 fused to an HA tag, residues 1–339) (human, UniProt P07355 1-339); experiment: […]
Chain of AnxA2–HA (His6–AnxA2 fused to an HA tag, residues 1–339) (P07355 whole entry, the tested form may be a part): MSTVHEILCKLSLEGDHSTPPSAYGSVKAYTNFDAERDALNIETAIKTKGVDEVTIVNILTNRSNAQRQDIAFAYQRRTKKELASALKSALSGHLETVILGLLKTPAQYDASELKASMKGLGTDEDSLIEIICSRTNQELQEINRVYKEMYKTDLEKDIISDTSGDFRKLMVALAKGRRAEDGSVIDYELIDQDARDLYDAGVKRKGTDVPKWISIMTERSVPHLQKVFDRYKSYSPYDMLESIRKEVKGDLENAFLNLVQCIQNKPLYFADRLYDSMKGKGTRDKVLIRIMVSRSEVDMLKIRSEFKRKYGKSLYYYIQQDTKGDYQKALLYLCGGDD

Row | Binder | binding result [4] | other results
1 | B1 | – | BiFC signal, percent of Venus fluorescence (% of Venus fluorescence) [1]: 75
2 | B2 | – | binding result [2]: binds; binding result [3]: binds
3 | B3 | binds | –
4 | B4 | binds | –
5 | B5 | binds | –
6 | B6 | binds | –
